B1: 12844B anti-hTfR monoclonal antibody (bivalent IgG1) (antibody, V domains shown)
VH: EVQLVESGGSVVRPGGSLRLSCEASGFTFDDYGMSWVRQDPGKGLEWVSGINWNGDRTNYADSVKGRFIISRDNAKNSVYLQMNSLRAEDSALYHCARDQGLGVAATLDYWGQGTLVTVSS
VL: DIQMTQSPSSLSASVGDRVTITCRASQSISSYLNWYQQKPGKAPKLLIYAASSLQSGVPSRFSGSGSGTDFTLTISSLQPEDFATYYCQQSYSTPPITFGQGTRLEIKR
notes: hIgG1/kappa
B2: 12808B anti-hTfR monoclonal antibody (bivalent IgG1) (antibody, V domains shown)
VH: QLQLQESGPGLVKPSETLSLTCTVSGESISSNTYYWGWIRQPPGKGLEWIGSIDYSGTTNYNPSLKSRVTISVDTSRNHFSLRLRSVTAADTAVYYCAREWGNYGYYYGMDVWGQGTTVTVSS
VL: DIQMTQSPSSLSASVGDRVTINCRASQGIRNDLGWYQQKPGKAPKRLIYAASSLQSGVPLRFSGSGSGTEFTLTINNLQPEDFATYYCLSHNSYPWTFGQGTKVEIKR
notes: hIgG1/kappa
B3: 12801B anti-hTfR monoclonal antibody (bivalent IgG1) (antibody, V domains shown)
VH: EVQLLESGGALVQPGGSLRLSCAASGFTFTSYAMHWVRQAPGKGLEWVSSIRGSGGGTYSADSVKGRFTISRDNSRDTLYLQMNSVRAEDTAVYYCARSHDYGAFDFFDYWGQGTLVTVSS
VL: DIQMTQSPSSLSASVGDRVTITCRASQGIRTDLGWYQQKPGKAPKRLIYAASSLQSGVPSRFSGSGSGTEFTLTISSLRPEDFATFYCLQYNSYPLTFGGGTKVEIKR
notes: hIgG1/kappa
B4: 12843B anti-hTfR monoclonal antibody (bivalent IgG1) (antibody, V domains shown)
VH: EVQLVESGGGLVQPGGSLRLSCAASGFTFNIFEMNWVRQAPGKGLEWISYISSRGTTTYYADSVRGRFTISRDNAKNSLYLQMNSLRAEDTAVYYCARDYEATIPFDFWGQGTLVTVSS
VL: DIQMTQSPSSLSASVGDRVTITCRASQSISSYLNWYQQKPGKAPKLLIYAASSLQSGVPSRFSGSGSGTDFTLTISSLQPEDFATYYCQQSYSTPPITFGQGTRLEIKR
notes: hIgG1/kappa; also called H1H12843B; REGN17512
B5: 12847B anti-hTfR monoclonal antibody (bivalent IgG1) (antibody, V domains shown)
VH: EVQLVESGGGLVQPGRSLRLSCAASGFTFDDYAMNWVRQAPGKGLEWVSGISWSSGSMDYADSVKGRFTISRDNAKNSLYLQMNSLRTEDTALYYCAKAREVGDYYGMDVWGQGTTVTVSS
VL: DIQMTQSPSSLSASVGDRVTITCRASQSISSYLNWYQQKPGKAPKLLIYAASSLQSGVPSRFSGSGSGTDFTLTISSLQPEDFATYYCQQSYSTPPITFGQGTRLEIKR
notes: hIgG1/kappa; also called H1H12847B; REGN17514
B6: 12848B anti-hTfR monoclonal antibody (bivalent IgG1) (antibody, V domains shown)
VH: EVQLVESGGGLVQPGRSLTLSCAASGFTFDNFGMHWVRQGPGKGLEWVSGLTWNSGVIGYADSVKGRFTISRDNAKNSLYLQMNSLRPEDTALYYCAKDIRNYGPFDYWGQGTLVTVSS
VL: not shown
notes: hIgG1/kappa; also called H1H12848B; REGN17515
B7: 12802B anti-hTfR monoclonal antibody (bivalent IgG1) (antibody, V domains shown)
VH: QVQLVESGGGLVKPGGSLRLSCAASGFTFSDYFMSWIRQAPGKGLEWVSYISSTGSTINYADSVKGRFTISRDNVKNSLYLQMTSLRVEDTAVYYCTRDNWNYEYWGQGTLVTVSS
VL: EIVMTQSPATLSVSPGERATLSCRASQSVSINLAWYQQKPGQAPRLLIFVASTRATGIPARFSGSGSGTEFTLTISSLQSEDFATYYCQQYDIWPYTFGQGTKLEIKR
notes: hIgG1/kappa
B8: 12835B anti-hTfR monoclonal antibody (bivalent IgG1) (antibody, V domains shown)
VH: EVQLVESGGGLIQPGGSLRLSCEASGFTFRNYEMNWVRQAPGKGLEWVSYISSSGNMKDYAESVKGRFTISRDNVKNSLQLQMNSLRVEDTAVYYCARDEFPYGMDVWGQGTTVTVSS
VL: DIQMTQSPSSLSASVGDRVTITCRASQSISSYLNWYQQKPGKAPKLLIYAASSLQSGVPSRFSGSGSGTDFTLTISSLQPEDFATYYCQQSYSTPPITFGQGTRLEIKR
notes: hIgG1/kappa; also called H1H12835B; REGN17509

T2 sequence (chain, as listed by the source): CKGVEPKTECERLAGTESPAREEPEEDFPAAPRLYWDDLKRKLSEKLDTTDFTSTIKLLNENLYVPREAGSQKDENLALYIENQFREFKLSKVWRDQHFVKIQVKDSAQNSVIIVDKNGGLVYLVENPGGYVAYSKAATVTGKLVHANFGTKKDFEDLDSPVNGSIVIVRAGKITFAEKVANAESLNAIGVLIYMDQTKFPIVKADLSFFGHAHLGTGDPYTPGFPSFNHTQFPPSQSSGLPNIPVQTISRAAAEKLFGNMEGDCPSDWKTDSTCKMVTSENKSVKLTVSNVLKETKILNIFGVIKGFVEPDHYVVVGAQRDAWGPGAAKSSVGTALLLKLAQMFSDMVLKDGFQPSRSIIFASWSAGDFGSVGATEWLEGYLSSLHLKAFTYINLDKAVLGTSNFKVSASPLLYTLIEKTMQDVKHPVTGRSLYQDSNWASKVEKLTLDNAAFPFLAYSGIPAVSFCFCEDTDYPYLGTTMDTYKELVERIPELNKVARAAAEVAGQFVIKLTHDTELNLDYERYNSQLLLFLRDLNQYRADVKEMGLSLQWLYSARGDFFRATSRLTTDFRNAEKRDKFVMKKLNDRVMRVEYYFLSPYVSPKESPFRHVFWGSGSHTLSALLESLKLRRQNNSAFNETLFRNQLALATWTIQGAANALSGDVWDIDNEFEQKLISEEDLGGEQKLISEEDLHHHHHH

One assay deals with T1, REGN2431 (hmm.hTfRC): monomeric human Tfrc ectodomain (C89-F760) with N-terminal hexahistidine-myc-myc tag (human, UniProt P02786 89-760).
T1 construct: also called hmm.hTfR(C89-F763); hTFR-mmh
T1 sequence (P02786 other isoform, or with tags, fused parts or gaps): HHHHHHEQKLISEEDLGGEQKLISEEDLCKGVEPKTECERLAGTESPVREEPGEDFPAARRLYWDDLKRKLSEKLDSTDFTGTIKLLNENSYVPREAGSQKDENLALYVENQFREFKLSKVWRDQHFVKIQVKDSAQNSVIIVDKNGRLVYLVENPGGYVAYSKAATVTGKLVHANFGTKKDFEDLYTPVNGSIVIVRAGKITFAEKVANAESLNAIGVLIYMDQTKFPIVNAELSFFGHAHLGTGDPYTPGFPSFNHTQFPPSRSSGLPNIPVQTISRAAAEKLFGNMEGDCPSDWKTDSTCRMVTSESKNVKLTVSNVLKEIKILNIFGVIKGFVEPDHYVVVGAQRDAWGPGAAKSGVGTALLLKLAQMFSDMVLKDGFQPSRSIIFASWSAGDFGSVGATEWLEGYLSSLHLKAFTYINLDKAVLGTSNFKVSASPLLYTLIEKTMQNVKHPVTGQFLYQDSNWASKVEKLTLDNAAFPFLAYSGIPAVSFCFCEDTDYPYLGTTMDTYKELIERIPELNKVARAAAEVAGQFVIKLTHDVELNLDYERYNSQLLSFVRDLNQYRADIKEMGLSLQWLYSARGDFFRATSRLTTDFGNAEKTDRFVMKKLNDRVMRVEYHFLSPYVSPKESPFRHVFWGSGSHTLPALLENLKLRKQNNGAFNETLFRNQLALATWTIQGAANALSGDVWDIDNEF
The assay can be described thus: SPR Biacore, IgG captured by anti-hFc, 25 C. The method, then: (§1) Biacore binding kinetics assays were conducted for the interaction of 32 anti-human TfR IgG1 monoclonal antibodies from CHO supernatants with TfR reagents at 25° C.
(§2) Equilibrium dissociation constants (KD) for the interaction of anti-TfR monoclonal antibodies with human and fascicularis monkey TfR ecto domain recombinant proteins were determined using a real-time surface plasmon resonance (SPR) based Biacore S200 biosensor. All binding studies were performed in 10 mM HEPES, 150 mM NaCl, 3 mM EDTA, and 0.05% v/v surfactant Tween-20, pH 7.4 (HBS-EP) running buffer at […]. The Biacore CM5 sensor surface was first derivatized by amine coupling with a monoclonal mouse anti-human Fc antibody (REGN2567) followed by a step to capture anti-TfR monoclonal antibodies in CHO conditioned media. […] The dissociation of TfR bound to anti-TfR monoclonal antibodies was monitored for 3 minutes in HBS-EP running buffer. At the end of each cycle, the anti-TfR monoclonal antibodies capture surface was regenerated using a 12-see injection of 20 mM H₃PO₄. The association rate (ka) and dissociation rate (kd) were determined by fitting the real-time binding sensorgrams to a 1:1 binding model with mass transport limitation using Scrubber 2.0c software. The dissociation equilibrium constant (KD) and dissociative half-life (t %) were calculated from the kinetic rate constants as: […]
With B1, the t1/2 stood at 95 min.

In turn, B2 returned a t1/2 of 108 min.

Molecule B3 registered a t1/2 of 276 min.

For the molecule B4, the t1/2 is 68.8 min.

As to B5, the t1/2 was found to be 67.6 min.

Molecule B6 registered a t1/2 of 232 min.

Regarding B7, the t1/2 was determined as 395 min.

Turning to B8, the t1/2 was 27.7 min.

Another assay addresses T2, REGN2054 (mf TFRC ecto-mmh): monomeric monkey (cyno) Tfrc ectodomain (C89-F760) with C-terminal … (monkey (cyno, Macaca fascicularis), UniProt H9EXL1 89-760).
T2 construct: range 89-760; also called mfTFR-mmh; mfTfR-mmh
The assay can be described thus: SPR Biacore, IgG captured by anti-hFc, 25 C. The method, then: as §1, §2
(In general: SPR reads the build-up and loss of mass on a sensor chip optically.)
Consider B1, for which the t1/2 came to 15.7 min.

Take B2: the t1/2 is 25.5 min.

As to B3, the t1/2 was determined as 17.7 min.

B4 displayed a t1/2 of 9.8 min.

B5 registered a t1/2 of 34.7 min.

Molecule B6 registered a t1/2 of 12 min.

In turn, B7 had a t1/2 of 21.8 min.

B8: the t1/2 was found to be 6.9 min.
